The source of these data is patent US20230279089A1 (GlaxoSmithKline, published 2023).

For experiment [1], the target named is T1, Mouse BMP1-3: 126-707 (mouse, UniProt P98063 126-707).
T1 sequence (looked up): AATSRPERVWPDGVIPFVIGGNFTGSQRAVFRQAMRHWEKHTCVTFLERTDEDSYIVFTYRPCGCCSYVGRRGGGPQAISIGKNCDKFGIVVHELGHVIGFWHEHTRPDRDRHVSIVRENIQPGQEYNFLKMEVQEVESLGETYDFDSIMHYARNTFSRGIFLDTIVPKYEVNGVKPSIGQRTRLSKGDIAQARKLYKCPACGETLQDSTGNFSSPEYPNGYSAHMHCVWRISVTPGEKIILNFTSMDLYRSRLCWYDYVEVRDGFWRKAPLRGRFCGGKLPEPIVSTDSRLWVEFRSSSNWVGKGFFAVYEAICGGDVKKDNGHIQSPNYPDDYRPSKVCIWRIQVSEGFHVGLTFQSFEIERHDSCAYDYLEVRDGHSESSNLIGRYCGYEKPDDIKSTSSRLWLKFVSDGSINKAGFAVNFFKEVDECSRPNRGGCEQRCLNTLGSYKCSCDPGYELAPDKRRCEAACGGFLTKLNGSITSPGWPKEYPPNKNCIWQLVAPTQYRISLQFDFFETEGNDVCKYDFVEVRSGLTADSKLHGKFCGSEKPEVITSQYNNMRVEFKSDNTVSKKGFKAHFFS
Kind of experiment: cell-based or functional assay.

The target of experiment [2] is T2, Human BMP1 CD+CUB1 truncated antigen (human, UniProt P13497 121-434, limits assumed).
T2 construct: domain: CD+CUB1
T2 sequence (looked up): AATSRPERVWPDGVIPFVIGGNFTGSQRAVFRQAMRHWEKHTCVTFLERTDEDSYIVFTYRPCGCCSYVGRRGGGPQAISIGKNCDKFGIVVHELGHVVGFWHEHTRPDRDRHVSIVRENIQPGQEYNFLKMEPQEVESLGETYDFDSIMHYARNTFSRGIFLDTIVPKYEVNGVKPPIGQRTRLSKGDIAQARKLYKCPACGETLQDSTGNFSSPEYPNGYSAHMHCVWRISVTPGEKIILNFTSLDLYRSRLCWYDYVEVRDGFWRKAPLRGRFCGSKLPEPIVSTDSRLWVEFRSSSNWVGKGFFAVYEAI
Description: SPR, mAb captured on protein A, HBS-EP. As to the method: The 16 lead panel antibodies expressed in HEK cells were evaluated for binding to a truncated version of human BMP containing the catalytic domain and truncated domain (Human BMP1 CD+CUB1 truncated antigen) by SPR using BIACORE T200. HBS-EP+ buffer was used and the experiment run at 25° C. Protein A was immobilised to a CM5 sensor chip via amine coupling. The lead panel antibodies were captured onto protein A surface. Human BMP1 CD+CUB1 was then passed over the captured antibodies at various concentrations.
(In general: Surface plasmon resonance follows binding to a sensor surface in real time, without labels.)

The target of experiment [3] is T3, Human BMP1-1 (human, UniProt P13497-2 121-730, limits assumed).
T3 sequence (looked up): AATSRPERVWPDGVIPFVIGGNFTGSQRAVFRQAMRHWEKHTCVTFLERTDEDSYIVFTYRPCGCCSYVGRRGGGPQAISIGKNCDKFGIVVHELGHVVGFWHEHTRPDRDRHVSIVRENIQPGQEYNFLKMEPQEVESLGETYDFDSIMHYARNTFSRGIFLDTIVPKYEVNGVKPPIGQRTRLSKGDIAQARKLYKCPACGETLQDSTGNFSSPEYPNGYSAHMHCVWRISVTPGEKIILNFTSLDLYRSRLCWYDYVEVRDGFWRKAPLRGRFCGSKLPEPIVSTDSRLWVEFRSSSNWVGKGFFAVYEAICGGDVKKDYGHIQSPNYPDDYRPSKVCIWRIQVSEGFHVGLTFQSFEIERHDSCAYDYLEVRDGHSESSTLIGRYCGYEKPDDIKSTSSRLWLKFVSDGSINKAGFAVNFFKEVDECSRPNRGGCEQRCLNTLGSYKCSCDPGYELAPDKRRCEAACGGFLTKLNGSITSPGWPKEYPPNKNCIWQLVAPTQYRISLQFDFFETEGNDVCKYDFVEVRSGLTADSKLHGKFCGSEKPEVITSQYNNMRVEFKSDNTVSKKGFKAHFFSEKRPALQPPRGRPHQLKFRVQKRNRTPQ
Description: cell-based or functional assay.

For experiment [4], the target named is T4, Mouse TLL1 (mouse, UniProt Q62381 148-1013, limits assumed).
T4 sequence (looked up): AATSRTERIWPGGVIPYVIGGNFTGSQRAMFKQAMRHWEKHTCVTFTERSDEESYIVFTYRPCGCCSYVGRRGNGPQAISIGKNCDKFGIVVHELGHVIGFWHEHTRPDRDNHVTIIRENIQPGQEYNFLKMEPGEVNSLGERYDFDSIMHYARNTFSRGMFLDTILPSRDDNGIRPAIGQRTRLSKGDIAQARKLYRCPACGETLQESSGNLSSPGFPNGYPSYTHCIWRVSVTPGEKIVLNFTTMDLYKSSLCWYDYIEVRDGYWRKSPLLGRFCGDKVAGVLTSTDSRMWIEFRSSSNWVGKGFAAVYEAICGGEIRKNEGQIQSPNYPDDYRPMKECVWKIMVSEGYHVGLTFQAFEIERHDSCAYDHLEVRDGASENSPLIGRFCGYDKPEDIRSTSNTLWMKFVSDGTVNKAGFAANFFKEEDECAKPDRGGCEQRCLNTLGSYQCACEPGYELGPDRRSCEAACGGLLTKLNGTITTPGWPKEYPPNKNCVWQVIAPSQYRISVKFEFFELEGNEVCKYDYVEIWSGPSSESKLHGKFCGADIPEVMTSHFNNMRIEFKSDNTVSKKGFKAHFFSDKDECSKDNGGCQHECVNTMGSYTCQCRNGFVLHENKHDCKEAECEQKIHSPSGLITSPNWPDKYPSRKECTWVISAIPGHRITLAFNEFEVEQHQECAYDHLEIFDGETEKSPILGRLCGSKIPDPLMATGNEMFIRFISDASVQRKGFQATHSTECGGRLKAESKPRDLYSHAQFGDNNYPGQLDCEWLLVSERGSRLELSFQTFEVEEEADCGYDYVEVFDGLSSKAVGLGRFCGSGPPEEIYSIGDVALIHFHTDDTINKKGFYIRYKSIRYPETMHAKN
Description: cell-based or functional assay.

Experiment [5] has as its target T5, Cyno TLL1 (cyno, UniProt A0A1D5QYV0 148-1013 (rhesus entry)).
T5 sequence: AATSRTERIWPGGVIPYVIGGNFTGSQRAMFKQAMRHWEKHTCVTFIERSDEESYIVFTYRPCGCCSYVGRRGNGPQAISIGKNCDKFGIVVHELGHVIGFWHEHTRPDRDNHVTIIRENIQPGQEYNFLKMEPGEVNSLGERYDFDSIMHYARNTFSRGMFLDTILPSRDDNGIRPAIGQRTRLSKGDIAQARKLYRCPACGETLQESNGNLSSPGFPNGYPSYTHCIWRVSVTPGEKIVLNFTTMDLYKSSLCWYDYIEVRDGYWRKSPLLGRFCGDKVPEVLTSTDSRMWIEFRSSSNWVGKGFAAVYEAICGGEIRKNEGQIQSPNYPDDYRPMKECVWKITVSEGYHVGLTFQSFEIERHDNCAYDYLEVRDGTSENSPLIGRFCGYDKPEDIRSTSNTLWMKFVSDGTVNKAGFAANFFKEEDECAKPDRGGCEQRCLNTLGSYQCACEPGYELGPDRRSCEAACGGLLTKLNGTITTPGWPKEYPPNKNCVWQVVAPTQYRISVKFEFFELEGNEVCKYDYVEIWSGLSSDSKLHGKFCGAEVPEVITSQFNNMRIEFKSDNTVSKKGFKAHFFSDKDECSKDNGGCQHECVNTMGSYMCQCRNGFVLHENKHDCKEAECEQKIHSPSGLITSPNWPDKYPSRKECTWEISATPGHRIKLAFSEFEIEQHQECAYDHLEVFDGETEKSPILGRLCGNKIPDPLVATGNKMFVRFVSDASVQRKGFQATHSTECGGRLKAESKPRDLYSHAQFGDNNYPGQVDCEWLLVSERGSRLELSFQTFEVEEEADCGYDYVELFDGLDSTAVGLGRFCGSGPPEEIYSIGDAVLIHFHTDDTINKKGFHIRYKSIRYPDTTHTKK
Description: cell-based or functional assay.

Experiment [6] addresses T3, Human BMP1-1. Description: cell-based or functional assay. The source holds these as a separate data set.

B1: 13Y039-8F02-2949 (antibody, human IgG1, kappa, V domains shown)
VH: QVQLVQSGAEVKKPGSSVKVSCKASGGTFSEWAISWVRQAPGQGLEWMGAIIPKFGTAEYAQKFQGRVTITADESTSTAYMELSSLRSEDTAVYYCARGAKYYYAEDYMDVWGKGTTVTVSS
VL: DIQMTQSPSSVSASVGDRVTITCRASQGISSWLAWYQQKPGKAPKLLIYAASSLQSGVPSRFSGSGSGTDFTLTISSLQPEDFATYYCQQALSLPYTFGGGTKVEIKR
notes: Fully human IgG1 LAGA, kappa; HEK expressed
As for B1, the “IC50 (read off the curve)” value in experiment [1] was about 0.06 nM; in experiment [6], about 0.5 nM. In addition, in experiment [2], binding was characterised by a dissociation constant (Kd) of 1.6 nM. Moreover, the “IC50, FRET enzyme activity, 62.5 pM huBMP1” value in experiment [3] came to 0.06 nM. Further, the “IC50, FRET enzyme activity, 800 pM biotinylated mTLL-1” value in experiment [4] worked out at 0.56 nM. For the same molecule, the “IC50, FRET enzyme activity, 750 pM biotinylated cynoTLL-1” value in experiment [5] stood at 0.02 nM.

Broadly, the Kd is the equilibrium constant for the complex coming apart.
